In publication doi:10.1101/2021.04.26.441533 (bioRxiv, 2021) one finds koff, kon and Kd data, which are given here for 1 molecule.

What all share (assay): single-molecule magnetic tweezers
The target of assay [1] is T1, Full-length vinculin (FL-vinculin) (UniProt P18206-2 1-1066).
T1 sequence (looked up): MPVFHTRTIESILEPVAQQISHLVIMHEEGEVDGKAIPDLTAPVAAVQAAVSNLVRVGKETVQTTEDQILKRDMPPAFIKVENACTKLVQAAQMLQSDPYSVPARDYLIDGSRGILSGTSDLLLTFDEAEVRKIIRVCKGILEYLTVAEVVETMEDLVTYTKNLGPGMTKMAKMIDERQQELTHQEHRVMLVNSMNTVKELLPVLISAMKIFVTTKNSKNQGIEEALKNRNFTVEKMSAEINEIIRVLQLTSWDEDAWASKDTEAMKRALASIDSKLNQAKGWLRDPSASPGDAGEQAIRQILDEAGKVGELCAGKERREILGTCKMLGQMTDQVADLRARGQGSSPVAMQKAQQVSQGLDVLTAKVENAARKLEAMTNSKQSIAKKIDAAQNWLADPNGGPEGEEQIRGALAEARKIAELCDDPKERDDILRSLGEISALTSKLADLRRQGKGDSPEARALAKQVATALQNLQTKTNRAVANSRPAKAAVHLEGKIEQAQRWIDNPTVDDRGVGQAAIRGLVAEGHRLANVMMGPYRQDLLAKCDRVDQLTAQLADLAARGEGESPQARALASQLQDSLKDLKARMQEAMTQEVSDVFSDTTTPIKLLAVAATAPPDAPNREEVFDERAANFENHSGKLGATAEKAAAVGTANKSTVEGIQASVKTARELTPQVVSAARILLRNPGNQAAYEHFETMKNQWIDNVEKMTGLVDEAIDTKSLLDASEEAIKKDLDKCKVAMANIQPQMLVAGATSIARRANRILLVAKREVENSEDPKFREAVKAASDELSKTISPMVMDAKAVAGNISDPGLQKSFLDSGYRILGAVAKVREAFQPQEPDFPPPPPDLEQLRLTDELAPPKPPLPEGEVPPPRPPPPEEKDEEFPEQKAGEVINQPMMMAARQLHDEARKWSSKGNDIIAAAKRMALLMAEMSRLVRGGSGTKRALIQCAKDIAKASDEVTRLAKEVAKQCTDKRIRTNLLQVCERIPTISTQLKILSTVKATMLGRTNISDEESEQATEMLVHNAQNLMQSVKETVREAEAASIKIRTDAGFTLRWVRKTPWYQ

Another assay deals with T2, vinculin T12 mutant (UniProt P18206-2 1-1066, D974A | K975A | R976A | R978A).
T2 sequence (looked up): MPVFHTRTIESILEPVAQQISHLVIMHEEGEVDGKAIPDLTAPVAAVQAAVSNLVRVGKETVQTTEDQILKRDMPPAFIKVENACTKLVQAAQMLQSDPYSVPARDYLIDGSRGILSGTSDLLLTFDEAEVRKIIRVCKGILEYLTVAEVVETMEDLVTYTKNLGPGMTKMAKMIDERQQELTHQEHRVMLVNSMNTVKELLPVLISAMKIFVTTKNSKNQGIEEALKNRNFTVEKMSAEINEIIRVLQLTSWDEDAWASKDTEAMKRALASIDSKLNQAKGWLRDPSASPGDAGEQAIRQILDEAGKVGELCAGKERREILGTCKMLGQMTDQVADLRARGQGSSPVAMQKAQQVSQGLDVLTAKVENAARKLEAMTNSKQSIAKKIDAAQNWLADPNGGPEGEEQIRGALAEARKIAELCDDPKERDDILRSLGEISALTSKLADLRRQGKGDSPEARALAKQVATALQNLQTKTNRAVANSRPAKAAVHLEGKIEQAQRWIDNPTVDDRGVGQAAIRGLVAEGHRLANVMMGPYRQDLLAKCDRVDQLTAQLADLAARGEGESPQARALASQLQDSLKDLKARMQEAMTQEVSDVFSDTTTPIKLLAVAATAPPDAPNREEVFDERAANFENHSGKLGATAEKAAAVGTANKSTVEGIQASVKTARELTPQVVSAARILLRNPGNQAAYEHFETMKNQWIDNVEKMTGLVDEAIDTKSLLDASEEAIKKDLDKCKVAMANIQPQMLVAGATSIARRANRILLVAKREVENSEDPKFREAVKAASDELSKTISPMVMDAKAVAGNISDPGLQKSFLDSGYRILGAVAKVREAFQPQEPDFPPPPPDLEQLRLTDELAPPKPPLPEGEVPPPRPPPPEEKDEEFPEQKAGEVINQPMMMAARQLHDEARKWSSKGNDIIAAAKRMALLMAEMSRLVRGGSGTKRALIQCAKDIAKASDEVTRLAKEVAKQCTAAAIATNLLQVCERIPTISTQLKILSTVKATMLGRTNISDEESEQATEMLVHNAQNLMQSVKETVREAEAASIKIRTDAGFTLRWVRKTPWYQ

The target in another assay is T3, vinculin head (D1-D4) (UniProt P18206-2 1-835).
T3 sequence (looked up): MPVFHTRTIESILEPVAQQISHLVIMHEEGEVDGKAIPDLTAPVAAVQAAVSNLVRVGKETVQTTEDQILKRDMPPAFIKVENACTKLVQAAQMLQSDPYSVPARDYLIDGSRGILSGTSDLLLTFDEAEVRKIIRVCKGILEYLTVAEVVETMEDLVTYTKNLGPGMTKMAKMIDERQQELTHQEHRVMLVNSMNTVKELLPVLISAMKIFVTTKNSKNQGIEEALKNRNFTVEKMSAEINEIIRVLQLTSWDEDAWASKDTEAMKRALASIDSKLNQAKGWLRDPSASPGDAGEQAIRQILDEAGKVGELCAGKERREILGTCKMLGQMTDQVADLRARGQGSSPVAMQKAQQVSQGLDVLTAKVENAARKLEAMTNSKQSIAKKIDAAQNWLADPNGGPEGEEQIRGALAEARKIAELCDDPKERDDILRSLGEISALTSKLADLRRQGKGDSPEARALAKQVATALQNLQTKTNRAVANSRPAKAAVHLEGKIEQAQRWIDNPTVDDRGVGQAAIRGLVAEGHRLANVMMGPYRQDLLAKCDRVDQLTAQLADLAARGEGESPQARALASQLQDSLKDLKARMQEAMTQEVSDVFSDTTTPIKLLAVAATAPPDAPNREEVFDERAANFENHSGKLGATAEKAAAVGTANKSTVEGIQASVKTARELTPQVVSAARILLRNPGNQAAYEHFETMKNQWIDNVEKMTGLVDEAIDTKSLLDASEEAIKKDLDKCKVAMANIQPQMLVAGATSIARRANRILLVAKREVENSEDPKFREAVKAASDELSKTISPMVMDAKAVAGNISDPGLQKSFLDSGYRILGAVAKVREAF

B1: talin R4-R6 domains (stretchable talin R4-R6 fragment) (domain or fragment, UniProt P26039 913-1357, looked up)
chain: LVQRLEHAAKQAAASATQTIAAAQHAASAPKASAGPQPLLVQSCKAVAEQIPLLVQGVRGSQAQPDSPSAQLALIAASQSFLQPGGKMVAAAKASVPTIQDQASAMQLSQCAKNLGTALAELRTAAQKAQEACGPLEMDSALSVVQNLEKDLQEIKAAARDGKLKPLPGETMEKCTQDLGNSTKAVSSAIAKLLGEIAQGNENYAGIAARDVAGGLRSLAQAARGVAALTSDPAVQAIVLDTASDVLDKASSLIEEAKKASGHPGDPESQQRLAQVAKAVTQALNRCVSCLPGQRDVDNALRAVGDASKRLLSDSLPPSTGTFQEAQSRLNEAAAGLNQAATELVQASRGTPQDLARASGRFGQDFSTFLEAGVEMAGQAPSQEDRAQVVSNLKGISMSSSKLLLAAKALSTDPASPNLKSQLAAAARAVTDSINQLITMCTQQA
modifications: N-terminus linked to a superparamagnetic bead through a 572-bp double strand DNA linker
Turning to B1, in assay [1], the koff (commonly the first-order rate constant of dissociation) was 0.014 s⁻¹ and the on-rate (kon) (as a rule, the rate constant with which the complex forms) was 1e+06 M⁻¹ s⁻¹. Moreover, in the assay with vinculin T12 mutant, binding was put at a Kd of 1.9 nM, the off-rate (koff) is 0.021 s⁻¹ and the on-rate (kon) stood at 1.1e+07 M⁻¹ s⁻¹. For the same molecule, in the assay with vinculin head (D1-D4), the Kd (as a rule, the concentration at which binding is half-saturated) came to 0.6 nM; the koff stood at 0.0022 s⁻¹; the association rate constant (kon) was found to be 3.7e+06 M⁻¹ s⁻¹.
